In PMC6999705:

Tests used:
RGE-MFG-E8-Ig (mouse) = RGE-MFG-E8-Ig (mouse) (UniProt P21956); assay: SEC
MFG-E8-Ig (mouse) = MFG-E8-Ig (mouse) (UniProt P21956); assay: SEC

stoichiometry N (RGE-MFG-E8-Ig (mouse))	stoichiometry N (MFG-E8-Ig (mouse))	Substance
2		RGE-MFG-E8-Ig (from UniProt P21956 23-148) (Fc fusion)
	2	MFG-E8-Ig (from UniProt P21956 23-148) (Fc fusion)
